Reference: article PMC9805813 (Biochemistry, 2021)

B1: mCherry fused to full length ParD1 (natural protein, Pseudomonas aeruginosa, UniProt Q9I707 1-75, looked up)
chain: MSTVVSFRADDALVAALDELARATHRDRPYHLRQALAQYLERQQWQVAAIDEGLADANAGRLLEHIEIEKRWGLQ
B2: PaParD1 I68A, His-tagged (natural protein, Pseudomonas aeruginosa, UniProt Q9I707 1-75, looked up)
chain: MSTVVSFRADDALVAALDELARATHRDRPYHLRQALAQYLERQQWQVAAIDEGLADANAGRLLEHIEAEKRWGLQ
B3: PaParD1 antitoxin, wild type, His-tagged (natural protein)
chain: MSTVVSFRADDALVAALDELARATHRDRPYHLRQALAQYLERQQWQVAAIDEGLADANAGRLLEHIEIEKRWGLQ

Key:
PaParE1 toxin, wild type = target: T1, PaParE1 toxin, wild type (Pseudomonas aeruginosa, UniProt Q9I708 1-93); assay: BLI
T1 sequence: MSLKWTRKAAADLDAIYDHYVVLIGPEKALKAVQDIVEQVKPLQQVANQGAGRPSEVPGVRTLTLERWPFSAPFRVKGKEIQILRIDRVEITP

SEC-MALS = target: the molecule itself; assay: SEC-MALS

Binder	Kd (PaParE1 toxin, wild type)	stoichiometry N (SEC-MALS)
B1	0.225 ± 0.0068 nM	
B2		2
B3		2
RQQWQVAAIDEGLADANAGRLLEHIEIEKRWGLQ (domain or fragment) [mCh-ParD1(42-75)]	0.828 ± 0.55 nM	
